What was measured:
[1] = molecular target: T1, human CD40 (hCD40) expressed on cells (human, UniProt P25942 21-277); assay: cell-based or functional assay
[2] = molecular target: T1, human CD40 (hCD40) expressed on cells; assay: cell-based or functional assay; remark: listed apart in the source
[3] = molecular target: T1, human CD40 (hCD40) expressed on cells; assay: cell-based or functional assay; remark: listed apart in the source
[4] = molecular target: T1, human CD40 (hCD40) expressed on cells; assay: cell-based or functional assay; remark: listed apart in the source
[5] = molecular target: T1, human CD40 (hCD40) expressed on cells; assay: cell-based or functional assay; remark: listed apart in the source
[6] = molecular target: T1, human CD40 (hCD40) expressed on cells; assay: cell-based or functional assay; remark: listed apart in the source
[7] = molecular target: T1, human CD40 (hCD40) expressed on cells; assay: cell-based or functional assay; remark: listed apart in the source
[8] = molecular target: T1, human CD40 (hCD40) expressed on cells; assay: cell-based or functional assay; remark: listed apart in the source
[9] = molecular target: T1, human CD40 (hCD40) expressed on cells; assay: cell-based or functional assay; remark: listed apart in the source
[10] = molecular target: T1, human CD40 (hCD40) expressed on cells; assay: flow cytometry, Ramos 2G6.4C10 cells
Procedure: (§1) Cells were washed with 2% FBS (w/v) in 1×PBS (flow cytometry staining buffer) by centrifugation with benchtop Centrifuge 5810R (Eppendorf®, Hamburg, Germany). Cells were incubated for 30 minutes at 4° C. with serial dilutions of following antibodies ranging from 1.7 pM to 100 nM in flow cytometry staining buffer (1) anti-CD40×CD40 bispecific antibodies, or (2) parental anti-CD40 antibodies (bivalent antibodies comprising 2 fragment antigen-binding [Fab] arms identical to one of the two anti-CD40 Fab of bispecific anti-CD40×CD40 antibodies), or (3) anti-CD40×Irrelevant antibodies (bivalent antibodies that incorporate one Fab arm identical to one of anti-CD40 Fab of anti-CD40×CD40 antibodies and another Fab arm specific to an irrelevant antigen, i.e. birch pollen main allergen Bet v1), or (4) human IgG4 isotype control antibodies with Fc mutation. After washing, cell bound antibodies were detected with 2.5 μg/ml Allophycocyanin (APC)-conjugated goat anti-human IgG antibody specific for the Fcγ fragment (Jackson Immunoresearch, West Grove, PA) for 30 minutes at 4° C. Cells were washed and subsequently fixed with 50% solution of Cytofix™ Fixation Buffer (BD, Franklin Lakes, NJ) in flow cytometry staining buffer for 20 minutes at room temperature. Cells were washed and resuspended in flow cytometry staining buffer and stored at 4° C. for downstream flow cytometry analysis.
(§2) Acquisition of fluorescence signals were recorded on the ZE5 Cell Analyzer (Bio-Rad, Hercules, CA) according to the manufacturer's recommended procedure and flow cytometry data analysis was performed using the open-source R packages flowCore, flowStats, flowDensity, ggCyto, and flowAI. Multiplexed samples were deconvoluted and individual cell populations were identified based on their unique CellTrace™ fluorescence signature. APC Median Fluorescence intensity (MFI) was recorded to indicate the binding intensity of each antibody over a range of concentrations. Antibodies with MFI greater than 1500 at the highest tested concentration (100 nM) were classified as specific binders. In addition, direct binding signals (APC MFI) were analyzed as a function of the antibody concentration and data were fitted with a sigmoidal (four-parameter logistic) dose-response model using GraphPad Prism™ software.

[11] = molecular target: T1, human CD40 (hCD40) expressed on cells; assay: flow cytometry, HEK293/D9/hCD40 cells
Procedure: as §1, §2

[12] = molecular target: T2, Macaca fascicularis CD40 (mfCD40) expressed on HEK293/D9/mfCD40 cells (Macaca fascicularis, UniProt G7PG38 21-278); assay: flow cytometry, HEK293/D9/mfCD40 cells
T2 construct: whole, on cells; also called monkey CD40
Procedure: as §1, §2

[13] = molecular target: T3, human CD40 extracellular domain expressed with a C-terminal myc-myc-hexahistidine tag (human); assay: ELISA blocking of 40 nM hCD40-mmH binding to 9His-hCD40L
T3 construct: also called hCD40-MMH; hCD40-mmH
Text: An ELISA-based blocking assay was developed to determine the ability of C40×CD40 bispecific antibodies to block the binding of the hCD40 monomer to plate-coated hCD40L. The recombinant human CD40-mmH protein (hCD40-MMH; REGN3094; SEQ ID NO: 53) used in the experiments comprises a portion of the human CD40 extracellular domain (amino acids P20-R193) fused to 2×Myc peptide and 6×histadine (SEQ ID NO: 1110) at the C-terminus of human CD40, and the human CD40L (accession #NM_000074.2) with amino acids E108-L261 of the extracellular domain with 9×His-2×(SGGG)-IGER at the N-terminus (9His-hCD40L) was commercially obtained from Biolegend.
In the blocking assay, 9His-hCD40L was passively absorbed at a concentration of 5 μg/mL in PBS on a 96-well microtiter plate overnight at 4° C. […] In a separate 96-well microtiter plate, a fixed amount of 40 nM hCD40-mmH was pre-mixed with one of the following antibodies, at concentrations ranging from 977 pM to 1 μM in PBS+0.5% BSA: (1) CD40×CD40 bispecific antibodies (REGN16431, REGN16432, REGN16634, and REGN16335); (2) parental CD40 mAbs (bivalent antibodies comprising 2 fragment antigen-binding [Fab] arms identical to one of anti-CD40 Fab of CD40×CD40 antibodies); (3) CD40×Irrelevant antibodies (bivalent antibodies that incorporate one Fab arm identical to one of anti-CD40 Fab of CD40×CD40 antibodies and another Fab arm specific to an irrelevant antigen); and (4) human IgG4 with Fc mutation isotype control antibodies (REGN7540 and REGN4513). The fixed concentration of hCD40-mmH was selected to be near the concentration (EC₅₀ value) that generated 50% of the maximal binding to the plate-adhered 9His-hCD40L. After one-hour incubation, the antibody-antigen complexes were transferred to the microtiter plate coated with 9His-hCD40L. After one hour incubation at room temperature, the plates were washed, and plate-bound hCD40-mmH protein was detected with horseradish peroxidase (HRP) conjugated goat anti-c-Myc antibody. The plates were then developed using TMB substrate solution (BD Biosciences) according to the manufacturer's recommended procedure and the absorbance at 450 nm (OD₄₅₀) was measured on a SpectraMax i3×plate reader.

T1 sequence (P25942 21-277): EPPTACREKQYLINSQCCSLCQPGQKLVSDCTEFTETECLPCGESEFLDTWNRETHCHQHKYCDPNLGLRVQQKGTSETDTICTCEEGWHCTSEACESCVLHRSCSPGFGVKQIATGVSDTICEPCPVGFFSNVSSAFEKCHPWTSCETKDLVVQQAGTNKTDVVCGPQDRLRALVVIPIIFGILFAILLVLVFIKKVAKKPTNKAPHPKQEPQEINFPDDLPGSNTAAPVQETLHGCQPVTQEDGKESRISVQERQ
T3 sequence (chain, as listed by the source limits assumed): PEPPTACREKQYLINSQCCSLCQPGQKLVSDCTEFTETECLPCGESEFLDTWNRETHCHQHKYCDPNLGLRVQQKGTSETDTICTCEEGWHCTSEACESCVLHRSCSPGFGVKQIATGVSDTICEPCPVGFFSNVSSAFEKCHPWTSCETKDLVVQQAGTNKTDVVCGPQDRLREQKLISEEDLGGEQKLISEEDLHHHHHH

Binder | % max blockade relative to no mAb, IL-6, donor 1 [4] | % max blockade relative to no mAb, IL-6, donor 2 [4] | % max blockade relative to no mAb, IL-6, donor 3 [4] | % max blockade relative to no mAb, IL-10, donor 1 [5] | % max blockade relative to no mAb, IL-10, donor 2 [5] | % max blockade relative to no mAb, IL-10, donor 3 [5] | % max blockade relative to no mAb, TNFa, donor 1 [6] | % max blockade relative to no mAb, TNFa, donor 2 [6] | % max blockade relative to no mAb, TNFa, donor 3 [6] | % max blockade relative to no mAb, IL-6, assay #2 donor 1 [7] | % max blockade relative to no mAb, IL-6, assay #2 donor 2 [7] | % max blockade relative to no mAb, IL-10, assay #2 donor 1 [8] | % max blockade relative to no mAb, IL-10, assay #2 donor 2 [8] | % max blockade relative to no mAb, TNFa, assay #2 donor 1 [9] | % max blockade relative to no mAb, TNFa, assay #2 donor 2 [9] | also measured
REGN16334 (bispecific antibody, human IgG4 S228P, kappa, D1 arm from 21519P2, D2 arm from 21520P2, common light chain; also called CD40xCD40 (21519 x 21520)) heavy 1: QLQLQESGPGLVRPSETLSLTCSVSGASMNTNNYYWGWIRQPPGKGLEWIGSGYYNGNTYYNPSLKSRVTISVDTSKNQFSLKLNSVTAADTAVYYCARQTPPRIIGSPNIWGQGTMVTVSSASTKGPSVFPLAPCSRSTSESTAALGCLVKDYFPEPVTVSWNSGALTSGVHTFPAVLQSSGLYSLSSVVTVPSSSLGTKTYTCNVDHKPSNTKVDKRVESKYGPPCPPCPAPGGGGPSVFLFPPKPKDTLMISRTPEVTCVVVDVSQEDPEVQFNWYVDGVEVHNAKTKPREEQFNSTYRVVSVLTVLHQDWLNGKEYKCKVSNKGLPSSIEKTISKAKGQPREPQVYTLPPSQEEMTKNQVSLTCLVKGFYPSDIAVEWESNGQPENNYKTTPPVLDSDGSFFLYSRLTVDKSRWQEGNVFSCSVMHEALHNHYTQKSLSLSLGK heavy 2: EVQLVESGGGLVQPGGSLRLSCAASGFTFGSYGMAWVRQAPGKGLEWVSAISGSGDYTNYADSVKRRFTISRDNSKNTLYLQMSSLRAEDTAVYYCAKEKTGTTGYLYSGMDVWGQGTTVTVSSASTKGPSVFPLAPCSRSTSESTAALGCLVKDYFPEPVTVSWNSGALTSGVHTFPAVLQSSGLYSLSSVVTVPSSSLGTKTYTCNVDHKPSNTKVDKRVESKYGPPCPPCPAPGGGGPSVFLFPPKPKDTLMISRTPEVTCVVVDVSQEDPEVQFNWYVDGVEVHNAKTKPREEQFNSTYRVVSVLTVLHQDWLNGKEYKCKVSNKGLPSSIEKTISKAKGQPREPQVYTLPPSQEEMTKNQVSLTCLVKGFYPSDIAVEWESNGQPENNYKTTPPVLDSDGSFFLYSRLTVDKSRWQEGNVFSCSVMHEALHNRFTQKSLSLSPGK light: not shown | 84.5% | 92% | 92% | 74.2% | 91.4% | 92.4% | 44% | 63.5% | 68.5% | 88.9% | 89.2% | 87.7% | 89.9% | 62.8% | 51.1% | IC50, 500 pM hCD40L, Ramos NFkB-luc [1]: 6.93e-11 M; Max % activation, no ligand, Ramos NFkB-luc [1]: 6%; Max % inhibition, 500 pM hCD40L, Ramos NFkB-luc [1]: 91%; IC50, 900 pM hCD40L, Raji NFkB-luc [2]: 5.76e-11 M; Max % activation, no ligand, Raji NFkB-luc [2]: 13%; Max % inhibition, 900 pM hCD40L, Raji NFkB-luc [2]: 113%; IC50, 10 nM hCD40L, THP-1 NFkB-luc [3]: 0.553 nM; Max % activation, no ligand, THP-1 NFkB-luc [3]: 1%; Max % inhibition, 10 nM hCD40L, THP-1 NFkB-luc [3]: 98%; EC50 [10]: 2 nM; MFI at 100 nM [10]: 3760 MFI; EC50 [11]: 2 nM; MFI at 100 nM [11]: 29000 MFI; EC50 [12]: 9.1 nM; MFI at 100 nM [12]: 41700 MFI; % Blocking at 1 uM mAb [13]: 98%; IC50 [13]: 32 nM
REGN11209 (comparator anti-CD40 antibody) (antibody, human IgG1, kappa, N297A, V domains shown) VH: QVQLVESGGGVVQPGRSLRLSCAASGFTFSSYGMHWVRQAPGKGLEWVAVISYEESNRYHADSVKGRFTISRDNSKITLYLQMNSLRTEDTAVYYCARDGGIAAPGPDYWGQGTLVTVSS VL: DIVMTQSPLSLTVTPGEPASISCRSSQSLLYSNGYNYLDWYLQKPGQSPQVLISLGSNRASGVPDRFSGSGSGTDFTLKISRVEAEDVGVYYCMQARQTPFTFGPGTKVDIRR | 84.2% | 91.3% | 91.3% | 84.1% | 91.7% | 91.4% | 53.9% | 71.4% | 73.9% | 88.6% | 88.3% | 88.1% | 90.5% | 62% | 50.6% | 
